Results reported in US6989362 (ROCKEFELLER UNIVERSITY, dated 2006).

Molecular target: purified catalytic subunit of cAMP-dependent protein kinase (PKA)
Test: kinetic analysis of PKA phosphorylation of ARPP-21 at 0-15 uM phospho-Thr75 DARPP-32; Lineweaver-Burk and secondary plot, competitive inhibition

- Ki: 2.7 µM
B1: phospho-Thr75 DARPP-32 (other)
chain: MDPKDRKKIQFSVPAPPSQLDPRQVEMIRRRRPTPAMLFRLSEHSSPEEEASPHQRASGEGHHLKSKRPNPCAYTPPSLKAVQRIAESHLQSISNLNENQASEEEDELGELRELGYPREEDEEEEEDDEEEEEEEDSQAEVLKVIRQSAGQKTTRGLGLEGPWERPPPLDESERDGGSEDQVEDPALSEPGEEPQRPSPSEPGR
